Source: the supplement of paper PMC7877785
± gives the uncertainty stated by the source.

Assay: self-splicing fitness, log relative to wild type (ln ratio); higher = more splicing; Tetrahymena group I intron in knt gene, E. coli kanamycin selection, DiMSum; sequences stand for … in CUCUCU…GGAGGGAAAAGUUAUCAGGCAUGCACCUGGUAGCUAGUCUUUAAACCAAUAGAUUGCAUCGGUUUAAAAGGCAAGACCGUCAAAUUGCGGGAAAGGGGUCAACAGCCGUUCAGUACCAAGUCUCAGGGGAAACUUUGAGAUGGCCUUGCAAAGGGUAUGGUAAUAAGCUGACGGACAUGGUCCUAACCACGCAGCCAAGUCCUAAGUCAACAGAUCUUCUGUUGAUAUGGAUGCAGUUCACAGACUAAAUGUCGGUCGGGGAAGAUGUAUUCUUCUCAUAAGAUAUAGUCGGACCUCUCCUUAAUGGGAGCUAGCGGAUGAAGUGAUGCAACACUGGAGCCGCUGGGAACUAAUUUGUAUGCGAAAGUAUAUUGAUUAGUUUUGGAGUACUCGUGGUCG
Outline: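 The eight P1ex-region nucleotides of an intron in the knt kanamycin-resistance gene on pET-22b(+) were all randomised and the library put into E. coli BL21(DE3). Six replicate transformations were grown overnight at 37°C or 30°C on LB agar with or without 25 μg/mL kanamycin, together with 100 μg/mL carbenicillin, 50 μM IPTG and 0.2% rhamnose. Colonies were pooled and amplicon-sequenced on an Illumina HiSeq 2500. Fitness from DiMSum is the error-weighted combination of wild-type-normalised replicate fold changes, kanamycin over none.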

| Sequence | self-splicing fitness (ln) (30 °C) | self-splicing fitness (ln) (37 °C) |
| --- | --- | --- |
| GCUCAGCAAUAUUACGUGAG | -4.29 ± 0.25 | -3.23 ± 0.2 |
| UUCGAGCAAUAUUACGAUCC | -2.6 ± 0.49 |  |
| ACAUAGCAAUAUUACGUAGA | -3.71 ± 0.15 | -1.62 ± 0.12 |
| UCGAAGCAAUAUUACGCGAA | -2.42 ± 0.17 | -0.19 ± 0.13 |
| CAUAAGCAAUAUUACGGGCA | -2.77 ± 0.18 | -1.8 ± 0.19 |
| UCGCAGCAAUAUUACGUAUC | -3.82 ± 0.37 | -2.15 ± 0.27 |
| UCGUAGCAAUAUUACGAUCC | -2.46 ± 0.35 |  |
| UGGAAGCAAUAUUACGCCGG | -0.646 ± 0.17 | -0.109 ± 0.16 |
| GGGAAGCAAUAUUACGUGGC | -2.16 ± 0.36 | -2.73 ± 0.31 |
| GGGUAGCAAUAUUACGGCUA | -0.886 ± 0.24 | -1.24 ± 0.22 |
| UCCGAGCAAUAUUACGAGUU | -2.64 ± 0.2 |  |
| GGAAAGCAAUAUUACGGGCU | -1.29 ± 0.12 | -0.815 ± 0.18 |
| CCUGAGCAAUAUUACGCAGG | -2.64 ± 0.27 | -3.36 ± 0.42 |
| CCUCAGCAAUAUUACGAGAU | -3.32 ± 0.18 | -3.16 ± 0.24 |
| UAACAGCAAUAUUACGUGGA | -3.11 ± 0.14 | -1.44 ± 0.08 |
| UUCAAGCAAUAUUACGAUAC | -2.1 ± 0.17 | -2.58 ± 0.48 |
| GAGUAGCAAUAUUACGUAUA | -2.4 ± 0.29 | -1.52 ± 0.22 |
| CGGCAGCAAUAUUACGCCUU | -0.474 ± 0.097 | -0.622 ± 0.12 |
| GUAUAGCAAUAUUACGACUU | -0.268 ± 0.072 | -0.0307 ± 0.085 |
| UGUGAGCAAUAUUACGAACU | -0.733 ± 0.14 | 0.203 ± 0.21 |
| AGGAAGCAAUAUUACGAAGG | -2.92 ± 0.28 | -2.8 ± 0.38 |
| GGUUAGCAAUAUUACGCAGA | -1.17 ± 0.24 | -2.02 ± 0.26 |
| UGCAAGCAAUAUUACGUAAG | -2.75 ± 0.13 | -2.64 ± 0.2 |
| UAUUAGCAAUAUUACGUGAC | -2.92 ± 0.42 | -1.82 ± 0.27 |
| GGCGAGCAAUAUUACGGCGC | -2.51 ± 0.29 | -2.52 ± 0.37 |
| CUUGAGCAAUAUUACGCUGU | -2.28 ± 0.19 | -2.06 ± 0.32 |

| Sequence | self-splicing fitness (ln) (30 °C) | self-splicing fitness (ln) (37 °C) |
| --- | --- | --- |
| UAUGAGCAAUAUUACGUCGA | -3.12 ± 0.38 | -2.47 ± 0.36 |
| AGGCAGCAAUAUUACGGCAU | -0.346 ± 0.062 | 0.15 ± 0.09 |
| AAGGAGCAAUAUUACGCGGA | -2.07 ± 0.13 | -2.71 ± 0.2 |
| CCGAAGCAAUAUUACGCUAA | -3.2 ± 0.34 | -2.7 ± 0.43 |
| CUCAAGCAAUAUUACGCUUU | -4.09 ± 0.37 | -3.52 ± 0.31 |
| GCGCAGCAAUAUUACGAGCA | -3.48 ± 0.21 | -1.11 ± 0.14 |
| UGGAAGCAAUAUUACGAGAC | -3.31 ± 0.48 |  |
| CUGCAGCAAUAUUACGUCGU | -4.05 ± 0.25 | -3.44 ± 0.25 |
| CCUGAGCAAUAUUACGAUCU | -4.01 ± 0.39 |  |
| GAUCAGCAAUAUUACGGGUA | -0.0547 ± 0.089 | -0.665 ± 0.086 |
| AUCCAGCAAUAUUACGCGAG | -0.838 ± 0.065 | -0.241 ± 0.078 |
| AAAGAGCAAUAUUACGGCAG | -4.02 ± 0.42 | -3.07 ± 0.29 |
| AGUUAGCAAUAUUACGUUCG | -1.26 ± 0.082 | -0.903 ± 0.1 |
| AUGGAGCAAUAUUACGUCCC | 0.0307 ± 0.46 | -0.013 ± 0.42 |
| CGUUAGCAAUAUUACGUCCC |  | -0.641 ± 0.36 |
| GCAAAGCAAUAUUACGAUAA | -1.48 ± 0.086 | -1.14 ± 0.1 |
| AAUCAGCAAUAUUACGACUG | -0.833 ± 0.097 | 0.27 ± 0.11 |
| AGGCAGCAAUAUUACGUUCU | -1.86 ± 0.08 | -0.817 ± 0.09 |
| ACAGAGCAAUAUUACGAUGA | -1.49 ± 0.17 | -1.15 ± 0.16 |
| CAGCAGCAAUAUUACGAUGA | -2.7 ± 0.21 | -1.31 ± 0.14 |
| UGCGAGCAAUAUUACGCUAC |  | -0.55 ± 0.46 |
| GACGAGCAAUAUUACGUCUG | -3.64 ± 0.22 | -2.53 ± 0.2 |
| AAACAGCAAUAUUACGAUUU | -0.279 ± 0.053 | 0.219 ± 0.071 |
| GCUUAGCAAUAUUACGGAAG | -2.07 ± 0.14 | -1.68 ± 0.14 |
| GCCUAGCAAUAUUACGCGGA | -0.245 ± 0.08 | 0.226 ± 0.093 |
| ACGUAGCAAUAUUACGUAUC | -3.45 ± 0.24 | -2.89 ± 0.26 |

| Sequence | self-splicing fitness (ln) (30 °C) | self-splicing fitness (ln) (37 °C) |
| --- | --- | --- |
| AUGAAGCAAUAUUACGUUAC | -1.96 ± 0.13 | -2.38 ± 0.24 |
| CUCUAGCAAUAUUACGGUUA |  | -3.24 ± 0.29 |
| ACUGAGCAAUAUUACGUUGC |  | -2.04 ± 0.28 |
| CUUGAGCAAUAUUACGGUUA | -2.25 ± 0.15 | -3.21 ± 0.3 |
| GGGGAGCAAUAUUACGCGGA | -2.24 ± 0.32 | -2.59 ± 0.36 |
| CACCAGCAAUAUUACGCUGU | -3.61 ± 0.15 | -2.63 ± 0.19 |
| AUAGAGCAAUAUUACGCGCC | -1.86 ± 0.32 | -0.949 ± 0.28 |
| GCCAAGCAAUAUUACGCCUA | -0.609 ± 0.16 | -0.61 ± 0.18 |
| AGUAAGCAAUAUUACGGGAG | -3.4 ± 0.2 | -2.43 ± 0.2 |
| GGGAAGCAAUAUUACGGUGG | -3.18 ± 0.24 | -2 ± 0.24 |
| AACUAGCAAUAUUACGUCCC | -0.0622 ± 0.15 | 0.182 ± 0.16 |
| ACAAAGCAAUAUUACGACUA | -0.772 ± 0.082 | -0.796 ± 0.084 |
| ACAUAGCAAUAUUACGAAAU | -3.43 ± 0.19 | -2.75 ± 0.26 |
| AUCCAGCAAUAUUACGGGCA | -0.0628 ± 0.073 | -0.507 ± 0.083 |
| ACAGAGCAAUAUUACGUUCG | -2.06 ± 0.11 | -0.493 ± 0.12 |
| UAAAAGCAAUAUUACGACGC | -2.67 ± 0.18 | -0.32 ± 0.15 |
| AAUAAGCAAUAUUACGUAUC | -1.6 ± 0.087 | -1.36 ± 0.11 |
| AACCAGCAAUAUUACGACCC | -0.941 ± 0.1 | 0.421 ± 0.13 |
| GCGCAGCAAUAUUACGAUUC | -0.291 ± 0.09 | 0.1 ± 0.1 |
| UUUAAGCAAUAUUACGCUAG | -1.54 ± 0.15 | -0.671 ± 0.2 |
| CUGCAGCAAUAUUACGUCAG | -3.61 ± 0.28 | -2.08 ± 0.21 |
| UCCAAGCAAUAUUACGCGCA | 0.131 ± 0.064 | 0.306 ± 0.079 |
| CUUAAGCAAUAUUACGUUCA | -2.9 ± 0.27 | -3.79 ± 0.47 |
| AUACAGCAAUAUUACGAGUA | -1.76 ± 0.16 | -0.461 ± 0.1 |
| CCUCAGCAAUAUUACGUAGA | -3.97 ± 0.28 | -2.8 ± 0.3 |
| CGUGAGCAAUAUUACGAUAU | -2.77 ± 0.14 | -2.71 ± 0.23 |
